Experimental data reported in paper PMC10195817, “Autophagy receptor NDP52 alters DNA conformation to modulate RNA polymerase II transcription” (Nature Communications, 2022).
“And” between values parts separate entries of the source, which are not always exact repeats. Equal entries are not always repeated.

How the values were obtained:
[1] = biological target: T1, NDP52-FL (full-length NDP52/CALCOCO2), Q13137; assay: mass photometry; NDP52-FL alone, 50 mM Tris-HCl pH 7.5, 150 mM NaCl, OneMP mass photometer; results say 100 nM, methods say diluted to 10 nM; conditions: remark: other sources report otherwise
T1 chain: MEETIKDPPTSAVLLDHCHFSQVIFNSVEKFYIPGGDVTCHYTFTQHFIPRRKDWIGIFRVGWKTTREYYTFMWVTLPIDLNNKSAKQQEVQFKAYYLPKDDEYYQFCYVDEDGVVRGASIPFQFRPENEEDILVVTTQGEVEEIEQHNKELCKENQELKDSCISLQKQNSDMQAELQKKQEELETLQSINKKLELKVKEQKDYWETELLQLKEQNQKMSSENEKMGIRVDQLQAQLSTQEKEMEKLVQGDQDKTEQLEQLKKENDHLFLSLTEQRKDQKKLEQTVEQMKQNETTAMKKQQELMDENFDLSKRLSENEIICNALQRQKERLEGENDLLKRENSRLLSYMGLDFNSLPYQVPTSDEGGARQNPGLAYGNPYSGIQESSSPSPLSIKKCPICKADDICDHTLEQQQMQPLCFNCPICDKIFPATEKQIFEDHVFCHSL

[2] = biological target: T1, NDP52-FL (full-length NDP52/CALCOCO2), …; assay: AFM imaging; purified protein adsorbed on mica (poly-L-lysine), imaged in liquid, PeakForce Tapping; monomers and oligomers counted by hand; conditions: remark: other sources report otherwise
[3] = biological target: T1, NDP52-FL (full-length NDP52/CALCOCO2), …; assay: SEC-MALS; 100 ul at 1 mg/ml (NDP52-FL, CoCoA) or 5 mg/ml (NNDP52, CNDP52, ZFs); Superdex 200 (30 x 1 cm); 50 mM Tris pH 7.5, 150 mM NaCl, 1 mM DTT; room temperature; conditions: remark: other sources report otherwise
[4] = biological target: T1, NDP52-FL (full-length NDP52/CALCOCO2), …; assay: MST; RED-tris-NTA labelled protein at 50 nM, unlabelled protein of the same construct titrated from 10 uM (16-step serial dilution), PBS, 15 min at room temperature; Monolith NT.115; oligomerisation, step of the constant not told; conditions: remark: other sources report otherwise
[5] = biological target: the molecule itself; assay: SEC-MALS; 100 ul at 1 mg/ml (NDP52-FL, CoCoA) or 5 mg/ml (NNDP52, CNDP52, ZFs); Superdex 200 (30 x 1 cm); 50 mM Tris pH 7.5, 150 mM NaCl, 1 mM DTT; room temperature
MST = biological target: the molecule itself; assay: MST
NDP52-FL [6] = biological target: T2, NDP52-FL (Human, UniProt Q13137 1-446); assay: fluorescence titration; Fluorescence: 100 nM DNA, 50 mM Tris-HCl pH 7.5, 150 mM NaCl, 1 mM DTT; EMSA: 50 mM Tris-HCl pH 7.5, 50 mM NaCl, 3 mM MgCl2, 5 min; temperature not stated; conditions: protein: recombinant, tags: His-tag (pET151), chain copies: 2, blunt
T2 sequence: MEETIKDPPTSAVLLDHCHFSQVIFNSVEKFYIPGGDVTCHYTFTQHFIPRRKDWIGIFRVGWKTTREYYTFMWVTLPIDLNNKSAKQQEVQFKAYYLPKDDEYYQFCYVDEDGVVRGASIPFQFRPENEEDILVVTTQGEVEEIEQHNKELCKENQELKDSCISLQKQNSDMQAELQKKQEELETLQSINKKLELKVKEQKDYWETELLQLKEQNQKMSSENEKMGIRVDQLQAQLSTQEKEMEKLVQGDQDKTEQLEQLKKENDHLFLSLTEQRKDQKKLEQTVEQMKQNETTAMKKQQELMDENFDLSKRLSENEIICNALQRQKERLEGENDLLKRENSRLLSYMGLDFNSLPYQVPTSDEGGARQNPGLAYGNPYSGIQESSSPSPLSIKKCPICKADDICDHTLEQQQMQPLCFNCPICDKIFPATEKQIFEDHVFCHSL

CoCoA = biological target: T3, CoCoA (Human, UniProt Q9P1Z2 1-691); assay: fluorescence titration; high affinity; Fluorescence: 100 nM DNA, 50 mM Tris-HCl pH 7.5, 150 mM NaCl, 1 mM DTT; EMSA: 50 mM Tris-HCl pH 7.5, 50 mM NaCl, 3 mM MgCl2, 5 min; temperature not stated; conditions: protein: recombinant, tags: His-tag (pET151), chain copies: 2, blunt
T3 sequence: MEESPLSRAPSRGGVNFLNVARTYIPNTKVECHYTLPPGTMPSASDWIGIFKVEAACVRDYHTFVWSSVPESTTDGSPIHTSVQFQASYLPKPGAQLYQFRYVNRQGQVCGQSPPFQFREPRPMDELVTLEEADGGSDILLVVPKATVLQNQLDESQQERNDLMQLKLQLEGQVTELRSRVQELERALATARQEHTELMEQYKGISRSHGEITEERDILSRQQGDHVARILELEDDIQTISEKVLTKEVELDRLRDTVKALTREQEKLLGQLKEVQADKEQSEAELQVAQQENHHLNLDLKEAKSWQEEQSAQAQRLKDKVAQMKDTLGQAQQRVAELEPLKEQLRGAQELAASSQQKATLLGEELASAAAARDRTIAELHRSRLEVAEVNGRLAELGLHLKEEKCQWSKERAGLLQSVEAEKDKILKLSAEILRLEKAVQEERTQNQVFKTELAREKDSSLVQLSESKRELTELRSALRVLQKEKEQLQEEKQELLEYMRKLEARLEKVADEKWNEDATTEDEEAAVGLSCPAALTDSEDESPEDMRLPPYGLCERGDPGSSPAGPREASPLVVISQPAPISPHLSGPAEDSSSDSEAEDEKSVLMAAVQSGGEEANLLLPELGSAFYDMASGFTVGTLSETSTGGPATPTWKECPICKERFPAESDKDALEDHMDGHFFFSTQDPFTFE

[7] = biological target: the molecule itself; assay: MST; RED-tris-NTA labelled protein at 50 nM, unlabelled protein of the same construct titrated from 10 uM (16-step serial dilution), PBS, 15 min at room temperature; Monolith NT.115; oligomerisation, step of the constant not told
[8] = biological target: T4, NNDP52 (N-terminal truncated region of NDP52, amino acid residues 1-190) (UniProt Q13137 1-190); assay: MST
T4 chain: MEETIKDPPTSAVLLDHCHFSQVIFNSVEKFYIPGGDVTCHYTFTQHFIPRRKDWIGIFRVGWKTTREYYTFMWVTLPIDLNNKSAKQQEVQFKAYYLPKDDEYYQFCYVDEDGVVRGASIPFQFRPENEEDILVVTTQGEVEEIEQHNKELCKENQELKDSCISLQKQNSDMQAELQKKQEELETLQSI

[9] = biological target: the molecule itself; assay: AFM imaging; purified protein adsorbed on mica (poly-L-lysine), imaged in liquid, PeakForce Tapping; monomers and oligomers counted by hand
NDP52-FL [10] = biological target: T2, NDP52-FL; assay: fluorescence titration, competition; with and without ss40 competitor; Fluorescence: 100 nM DNA, 50 mM Tris-HCl pH 7.5, 150 mM NaCl, 1 mM DTT; EMSA: 50 mM Tris-HCl pH 7.5, 50 mM NaCl, 3 mM MgCl2, 5 min; temperature not stated; conditions: protein: recombinant; tags: His-tag (pET151); chain copies: 2; label: 3' FAM (called FITC in Methods) on strand 1 for fluorescence; blunt
[11] = label: 3' FAM (called FITC in Methods) on strand 1
[12] = label: 3' FAM (called FITC in Methods) on strand 1 for fluorescence

B1: NDP52-FL (full-length NDP52/CALCOCO2), Q13137 1-446 (natural protein)
chain: MEETIKDPPTSAVLLDHCHFSQVIFNSVEKFYIPGGDVTCHYTFTQHFIPRRKDWIGIFRVGWKTTREYYTFMWVTLPIDLNNKSAKQQEVQFKAYYLPKDDEYYQFCYVDEDGVVRGASIPFQFRPENEEDILVVTTQGEVEEIEQHNKELCKENQELKDSCISLQKQNSDMQAELQKKQEELETLQSINKKLELKVKEQKDYWETELLQLKEQNQKMSSENEKMGIRVDQLQAQLSTQEKEMEKLVQGDQDKTEQLEQLKKENDHLFLSLTEQRKDQKKLEQTVEQMKQNETTAMKKQQELMDENFDLSKRLSENEIICNALQRQKERLEGENDLLKRENSRLLSYMGLDFNSLPYQVPTSDEGGARQNPGLAYGNPYSGIQESSSPSPLSIKKCPICKADDICDHTLEQQQMQPLCFNCPICDKIFPATEKQIFEDHVFCHSL
In the case of B1, the stoichiometry N [1] is reported as 2 and 3, the percent of molecules in an oligomeric state [2] is reported as 15% and the stoichiometry N [2] is reported as 2. For the same binder, the stoichiometry N [3] was 2 and 3 and 4 and the Kd [4] was 210 nM.

B2: NNDP52 (N-terminal truncated region of NDP52, amino acid residues 1-190) (domain or fragment, UniProt Q13137 1-190, looked up)
chain: MEETIKDPPTSAVLLDHCHFSQVIFNSVEKFYIPGGDVTCHYTFTQHFIPRRKDWIGIFRVGWKTTREYYTFMWVTLPIDLNNKSAKQQEVQFKAYYLPKDDEYYQFCYVDEDGVVRGASIPFQFRPENEEDILVVTTQGEVEEIEQHNKELCKENQELKDSCISLQKQNSDMQAELQKKQEELETLQSI
notes: NDP52/CALCOCO2, SKICH domain and part of the coiled-coil region, amino acid residues 1-190; also called N-terminal region of NDP52; source: E. coli BL21 DE3, purified (HisTrap FF, Superdex 200 SEC)
With B2 the “stoichiometry N” value [5] was 2 and the Kd (MST) was 170 nM.

B3: ds15 (dsDNA)
DNA 1: TTAGTTGTTCTCTGG
DNA 2: CCAGAGAACAACTAA
For B3, the Kd (NDP52-FL [6]; [11]) was under 100 nM and the binding result (CoCoA; [11]) was “binds”.

B4: CoCoA (recombinant) (natural protein, UniProt Q9P1Z2 1-691, looked up)
chain: MEESPLSRAPSRGGVNFLNVARTYIPNTKVECHYTLPPGTMPSASDWIGIFKVEAACVRDYHTFVWSSVPESTTDGSPIHTSVQFQASYLPKPGAQLYQFRYVNRQGQVCGQSPPFQFREPRPMDELVTLEEADGGSDILLVVPKATVLQNQLDESQQERNDLMQLKLQLEGQVTELRSRVQELERALATARQEHTELMEQYKGISRSHGEITEERDILSRQQGDHVARILELEDDIQTISEKVLTKEVELDRLRDTVKALTREQEKLLGQLKEVQADKEQSEAELQVAQQENHHLNLDLKEAKSWQEEQSAQAQRLKDKVAQMKDTLGQAQQRVAELEPLKEQLRGAQELAASSQQKATLLGEELASAAAARDRTIAELHRSRLEVAEVNGRLAELGLHLKEEKCQWSKERAGLLQSVEAEKDKILKLSAEILRLEKAVQEERTQNQVFKTELAREKDSSLVQLSESKRELTELRSALRVLQKEKEQLQEEKQELLEYMRKLEARLEKVADEKWNEDATTEDEEAAVGLSCPAALTDSEDESPEDMRLPPYGLCERGDPGSSPAGPREASPLVVISQPAPISPHLSGPAEDSSSDSEAEDEKSVLMAAVQSGGEEANLLLPELGSAFYDMASGFTVGTLSETSTGGPATPTWKECPICKERFPAESDKDALEDHMDGHFFFSTQDPFTFE
notes: CoCoA, member of the CALCOCO family, recombinant; source: E. coli BL21 DE3, purified (HisTrap FF, Superdex 200 SEC)
With B4 the “stoichiometry N” value [5] was 2 and the Kd [7] was 85 nM.

B5: CNDP52 (C-terminal region of NDP52, amino acid residues 365-446) (domain or fragment, UniProt Q13137 365-446, looked up)
chain: EGGARQNPGLAYGNPYSGIQESSSPSPLSIKKCPICKADDICDHTLEQQQMQPLCFNCPICDKIFPATEKQIFEDHVFCHSL
notes: NDP52/CALCOCO2, a section of the coiled-coil and both zinc finger domains, amino acid residues 365-446; source: E. coli BL21 DE3, purified (HisTrap FF, Superdex 200 SEC)
With B5 the “stoichiometry N” value [5] was 3, the Kd [7] was 50 ± 6 nM and the Kd [8] was 110 nM. For the same binder, the “stoichiometry N” value [9] was 2.

B6: ds40 (dsDNA)
DNA 1: TTAGTTGTTCGTAGTGCTCGTCTGGCTCTGGATTACCCGC
DNA 2: GCGGGTAATCCAGAGCCAGACGAGCACTACGAACAACTAA
For B6, the Kd (NDP52-FL [6]; [12]) was under 100 nM, the Kd (NDP52-FL [10]) was under 100 nM and the binding result (CoCoA; [12]) was “binds”.

B7: ZFs (the two zinc finger domains of NDP52, amino acid residues 380-446) (domain or fragment, UniProt Q13137 380-446, looked up)
chain: YSGIQESSSPSPLSIKKCPICKADDICDHTLEQQQMQPLCFNCPICDKIFPATEKQIFEDHVFCHSL
notes: NDP52/CALCOCO2, zinc finger domains ZF1 and ZF2, amino acid residues 380-446; also called ZFs domain; source: E. coli BL21 DE3, purified (HisTrap FF, Superdex 200 SEC)
In the case of B7, the “stoichiometry N” value [5] is reported as 2 and 3 and the Kd [7] is reported as 180 ± 17 nM.
